Test results: patent publication US8168592B2 (Amgen Inc., priority 2005, dated 2012)
Square brackets hold non-standard residues; d marks the D form. PEG = not defined here

Assays:
[1] = in vitro stability in 10% human plasma, LC-MS/MS; type: in vitro ADME; settings: room temperature, 100 ng/ml; for % Remaining: 0 h
Method: (§1) Consequently, the stability of select, non-PEGylated analogs was evaluated in vitro in the presence of 10% rat or human plasma. Briefly, samples of each peptide were diluted to 100 ng/ml into PBS containing 10% of rat or human plasma. Each sample was then incubated at room temperature and analyzed by LC-MS/MS to quantitate the intact peptide remaining at select time points over 6 hours.

[2] = in vitro stability in 10% rat plasma, LC-MS/MS; type: in vitro ADME; settings: room temperature, 100 ng/ml
Method: as §1

CGRP1 receptor = target: T1, CGRP1 receptor (Homo sapiens, UniProt O60894+Q16602); experiment: in vitro CGRP1 receptor mediated cAMP assay in SK-N-MC cells; type: cell-based; settings: for loss in antagonist activity on PEGylation relative to the unconjugated parent peptide: cAMP assay
T1 construct: SK-N-MC cells express CRLR and RAMP1, which form CGRP1 receptor; endogenous in cells; host or cells: SK-N-MC human neuroblastoma cells
In short: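 Intracellular cAMP served as the Gs-coupled CGRP1 readout in endogenously expressing SK-N-MC cells. After a 15-minute room-temperature step in plasma-free medium, cell lysates (30 minutes, 37° C) went into a competitive ELISA with a cAMP-AP conjugate and anti-cAMP antibody for 1 hour, then a 30-minute substrate enhancer step before reading.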

[3] = rat pharmacokinetic studies; settings: 2 mg/kg; for AUC0-inf / AUC0-t / CL / MRT / Vss / t1/2 / CL/F / Cmax / Tmax / F %: rat, mean, n = 3
Method: Rat pharmacokinetic studies. […] There were three rats per group (n=3), each weighing 250-325 g. Each group received either a 2 mg/kg intravenous or subcutaneous discrete administration. The approximate dose volume was 0.3 mL per rat. Approximately 0.25 mL of whole blood was taken per time point at the following post-dose collection times for the intravenous groups (in hours): 0.083, 0.25, 0.5, 1, 2, 4, 6, 8, 24, 48, 72, 96 and the following time points for the subcutaneous groups (in hours): 0.25, 0.5, 1, 2, 4, 6, 8, 24, 48, 72, 96. Whole blood samples were collected in microtainer vials containing EDTA as anticoagulant and were kept on wet ice until processed for plasma. The plasma was obtained by centrifuging the whole blood for approximately 5 min at 11,500 rpm. Plasma was transferred to new tubes and stored frozen at approximately −70° C. until quantitative analysis. […] The individual sample concentrations for each time point were averaged (n=3) within a given dose group using Excel 2000 software. The averaged plasma concentration-time data were analyzed by noncompartmental methods using WinNonlin v.3.3 software. Nominal sample times were used in the pharmacokinetic analysis. The area under the concentration-time curve was calculated using the linear/log trapezoidal method to determine exposure.

T1 sequence (Q16602 23-461): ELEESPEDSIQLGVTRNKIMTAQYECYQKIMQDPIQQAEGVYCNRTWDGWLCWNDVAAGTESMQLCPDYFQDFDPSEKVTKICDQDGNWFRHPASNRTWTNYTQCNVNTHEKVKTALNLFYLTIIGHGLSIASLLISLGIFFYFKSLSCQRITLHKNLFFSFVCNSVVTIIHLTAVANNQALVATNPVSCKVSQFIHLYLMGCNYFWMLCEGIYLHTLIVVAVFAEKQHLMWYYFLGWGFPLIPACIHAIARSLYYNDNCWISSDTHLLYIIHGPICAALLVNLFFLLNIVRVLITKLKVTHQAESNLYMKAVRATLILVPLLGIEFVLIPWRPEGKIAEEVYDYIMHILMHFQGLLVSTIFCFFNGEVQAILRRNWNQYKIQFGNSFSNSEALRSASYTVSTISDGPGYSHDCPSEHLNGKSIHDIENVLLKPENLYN
T1 sequence (O60894 27-148): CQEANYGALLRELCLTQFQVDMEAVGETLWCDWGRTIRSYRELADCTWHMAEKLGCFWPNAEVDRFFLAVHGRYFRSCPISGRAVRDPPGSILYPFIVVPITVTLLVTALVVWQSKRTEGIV

Compound: CC(=O)N[C@@H](Cc1c[nH]c2ccccc12)C(=O)N[C@H](C(=O)N[C@H](C(=O)N[C@@H](Cc1cnc[nH]1)C(=O)N[C@@H](CCCCNC(=N)N)C(=O)N[C@@H](CC(C)C)C(=O)N[C@@H](C)C(=O)NCC(=O)N[C@@H](CC(C)C)C(=O)N[C@@H](CC(C)C)C(=O)N[C@@H](CO)C(=O)N[C@@H](CCCCNC(=N)N)C(=O)N[C@@H](CO)C(=O)NCC(=O)NCC(=O)N[C@H](C(=O)N[C@H](C(=O)N[C@@H](CCCNC(=N)N)C(=O)N[C@@H](CCCCN)C(=O)N[C@@H](CC(N)=O)C(=O)N[C@@H](Cc1ccccc1)C(=O)N[C@H](C(=O)N1CCC[C@H]1C(=O)N[C@H](C(=O)N[C@@H](CC(=O)O)C(=O)N[C@H](C(=O)NCC(=O)N1CCC[C@H]1C(=O)N[C@@H](Cc1ccccc1)C(=O)N[C@@H](C)C(=O)N[C@@H](Cc1ccccc1)C(N)=O)C(C)C)[C@@H](C)O)C(C)C)C(C)C)C(C)C)[C@@H](C)O)C(C)C [SEQ ID NO: 25]
- % Remaining [1]: 100.0%
- remaining at 0.17 h, 100 ng/ml [1]: 88.3%
- remaining at 0.5 h, 100 ng/ml [1]: 47.3%
- remaining at 1 h, 100 ng/ml [1]: 28.7%
- remaining at 2 h, 100 ng/ml [1]: 11%
- remaining at 3 h, 100 ng/ml [1]: 5.4%
- remaining at 4 h, 100 ng/ml [1]: 3.1%
- remaining at 5 h, 100 ng/ml [1]: 3.6%
- remaining at 6 h, 100 ng/ml [1]: 2.8%

Compound: CC(=O)N[C@@H](Cc1c[nH]c2ccccc12)C(=O)N[C@H](C(=O)N[C@H](C(=O)N[C@@H](Cc1cnc[nH]1)C(=O)N[C@@H](CCCCNC(=N)N)C(=O)N[C@@H](CC(C)C)C(=O)N[C@@H](C)C(=O)NCC(=O)N[C@@H](CC(C)C)C(=O)N[C@@H](CC(C)C)C(=O)N[C@@H](CO)C(=O)N[C@@H](CCCCNC(=N)N)C(=O)N[C@@H](CO)C(=O)NCC(=O)NCC(=O)N[C@H](C(=O)N[C@H](C(=O)N[C@@H](CCCNC(=N)N)C(=O)N[C@@H](CCCCN)C(=O)N[C@@H](CC(N)=O)C(=O)N[C@@H](Cc1ccccc1)C(=O)N[C@H](C(=O)N1CCC[C@H]1C(=O)N[C@H](C(=O)N[C@@H](CC(=O)O)C(=O)N[C@H](C(=O)NCC(=O)N1CCC[C@H]1C(=O)N[C@@H](Cc1ccccc1)C(=O)N[C@@H](C)C(=O)N[C@@H](Cc1ccccc1)C(N)=O)C(C)C)[C@@H](C)O)C(C)C)C(C)C)C(C)C)[C@@H](C)O)C(C)C [compound 25]
- % Remaining ([2]; 0 h): 100.0%
- remaining at 0.5 h, 100 ng/ml ([2]; 0.5 h): 76.9%
- remaining at 1 h, 100 ng/ml ([2]; 1 h): 58.1%
- remaining at 2 h, 100 ng/ml ([2]; 2 h): 27.5%
- remaining at 3 h, 100 ng/ml ([2]; 3 h): 21.3%
- remaining at 4 h, 100 ng/ml ([2]; 4 h): 16.3%
- remaining at 5 h, 100 ng/ml ([2]; 5 h): 11%
- remaining at 6 h, 100 ng/ml ([2]; 6 h): 7.1%

Compound: Ac-WVTHQLAGLLSQSGGVVRKNFVPTDVGPFAF-NH2 [SEQ ID NO: 39]
- % Remaining [1]: 100.0%
- remaining at 0.17 h, 100 ng/ml [1]: 74.2%
- remaining at 0.5 h, 100 ng/ml [1]: 54%
- remaining at 1 h, 100 ng/ml [1]: 50.2%
- remaining at 2 h, 100 ng/ml [1]: 36.7%
- remaining at 3 h, 100 ng/ml [1]: 15.8%
- remaining at 4 h, 100 ng/ml [1]: 11.3%
- remaining at 5 h, 100 ng/ml [1]: 6.3%
- remaining at 6 h, 100 ng/ml [1]: 5.2%

Compound: Ac-WVTHRLAGLLSQSGGVVRKNFVPTDVGPFAF-NH2 [SEQ ID NO: 37]
- % Remaining [1]: 100.0%
- remaining at 0.17 h, 100 ng/ml [1]: 59%
- remaining at 0.5 h, 100 ng/ml [1]: 20.6%
- remaining at 1 h, 100 ng/ml [1]: 10%
- remaining at 2 h, 100 ng/ml [1]: 2.3%
- remaining at 3 h, 100 ng/ml [1]: 1.3%
- remaining at 4 h, 100 ng/ml [1]: 0.7%
- remaining at 5 h, 100 ng/ml [1]: 0.7%
- remaining at 6 h, 100 ng/ml [1]: 0%

Compound: SEQ ID NO:32 (WVTHXLAGLLSXSGGVVRKNFVPTDVGPFAF; CGRP peptide; MOD_RES (1)..(1): …ON; MISC_FEATURE (5)..(5): xaa=citrulline; MISC_FEATURE (12)..(12): xaa=citrulline; MISC_FEATURE (19)..(19): PEGylated; MOD_RES (31)..(31): AMIDATION)
- antagonist activity in cAMP assay, in words (CGRP1 receptor): relatively minor loss of in vitro antagonist activity
- mean residence time (MRT) longer compared to SEQ ID NO:15 ([3]; intravenous): 4 times
- bioavailablity (F %) ([3]; subcutaneous): 47%
- exposure (AUC) increase compared to SEQ ID NO:15 ([3]; subcutaneous): about 15 fold

Compound: SEQ ID NO:33 (Ac-WVTHRLAGLLSASGGVVRCNFVPTDVGPFAF-NH2)
- antagonist activity in cAMP assay, in words (CGRP1 receptor): not well tolerated

Compound: SEQ ID NO:35 (Ac-WVTHRLAGLLSQSGGVVRCNFVPTDVGPFAF-NH2)
- antagonist activity in cAMP assay, in words (CGRP1 receptor): well tolerated

Compound: SEQ ID NO:36 (Ac-WVTHRLAGLLSQSGGVVRC(PEG)NFVPTDVGPFAF-NH2; reading uncertain)
- loss in antagonist activity on PEGylation relative to the unconjugated parent peptide (CGRP1 receptor): greater than 12 fold

Compound: SEQ ID NO:38 (Ac-WVTHRLAGLLSQSGGVVRK(PEG)NFVPTDVGPFAF-NH2; reading uncertain)
- more potent than the thioether-linked PEGylated analog SEQ ID NO:36 (CGRP1 receptor; amine linkage): more than 42 fold

Compound: SEQ ID NO:40 (Ac-WVTHQLAGLLSQSGGVVRK(PEG)NFVPTDVGPFAF-NH2; reading uncertain)
- antagonist activity in cAMP assay, in words (CGRP1 receptor): reasonably good in vitro potency

Compound: SEQ ID NO:41 (Ac-WVTHRLAGLLS[dR]SGGVVRCNFVPTDVGPFAF-NH2; SMILES CC(=O)N[C@@H](Cc1c[nH]c2ccccc12)C(=O)N[C@H](C(=O)N[C@H](C(=O)N[C@@H](Cc1c[nH]cn1)C(=O)N[C@@H](CCCNC(=N)N)C(=O)N[C@@H](CC(C)C)C(=O)N[C@@H](C)C(=O)NCC(=O)N[C@@H](CC(C)C)C(=O)N[C@@H](CC(C)C)C(=O)N[C@@H](CO)C(=O)N[C@H](CCCNC(=N)N)C(=O)N[C@@H](CO)C(=O)NCC(=O)NCC(=O)N[C@H](C(=O)N[C@H](C(=O)N[C@@H](CCCNC(=N)N)C(=O)N[C@@H](CS)C(=O)N[C@@H](CC(N)=O)C(=O)N[C@@H](Cc1ccccc1)C(=O)N[C@H](C(=O)N1CCC[C@H]1C(=O)N[C@H](C(=O)N[C@@H](CC(=O)O)C(=O)N[C@H](C(=O)NCC(=O)N1CCC[C@H]1C(=O)N[C@@H](Cc1ccccc1)C(=O)N[C@@H](C)C(=O)N[C@@H](Cc1ccccc1)C(N)=O)C(C)C)[C@@H](C)O)C(C)C)C(C)C)C(C)C)[C@@H](C)O)C(C)C)
- antagonist activity in cAMP assay, in words (CGRP1 receptor): well tolerated

Compound: SEQ ID NO:42 (Ac-WVTHRLAGLLS[dR]SGGVVRCNFVPTDVGPFAF-NH2; not fully specified (residue 19); printed as Ac-WVTHRLAGLLSrSGGVVRCNFVPTDVGPFAF-NH2)
- loss in antagonist activity on PEGylation relative to the unconjugated parent peptide (CGRP1 receptor): greater than 32 fold

Compound: SEQ ID NO: 15: 20 kDa PEG conjugate of SEQ ID NO:7 (reductive alkylation) (Ac-WVTHRLAGLLSRSGGVVRK(20 kDa PEG)NFVPTDVGPFAF-NH2)
- AUC0-inf ([3]; IV): 12959 ng·h/mL
- AUC0-t ([3]; IV): 12940 ng·h/mL
- CL ([3]; IV): 2.57 mL/min/kg
- MRT ([3]; IV): 1.10 h
- Vss ([3]; IV): 0.174 L/kg
- t1/2 ([3]; IV): 10.60 h
- AUC0-inf ([3]; SC): 1542 ng·h/mL
- AUC0-t ([3]; SC): 1264 ng·h/mL
- CL/F ([3]; SC): 20.95 mL/min/kg
- Cmax ([3]; SC): 137 ng/mL
- Tmax ([3]; SC): 2.00 h
- t1/2 ([3]; SC): 22.37 h

Compound: SEQ ID NO: 26: PEGylated double homoarginine analog (WVTHXLAGLLSXSGGVVRKNFVPTDVGPFAF; PEGylated; homoarginine residues; CGRP peptide; MOD_RES (1)..(1): …ON; MISC_FEATURE (5)..(5): xaa=homoarginine; MISC_FEATURE (12)..(12): xaa=homoarginine; MISC_FEATURE (19)..(19): PEGylated; MOD_RES (31)..(31): AMIDATION)
- AUC0-inf ([3]; IV): 24555 ng·h/mL
- AUC0-t ([3]; IV): 24546 ng·h/mL
- CL ([3]; IV): 1.35 mL/min/kg
- MRT ([3]; IV): 1.01 h
- Vss ([3]; IV): 0.083 L/kg
- t1/2 ([3]; IV): 7.39 h
- AUC0-inf ([3]; SC): 1204 ng·h/mL
- AUC0-t ([3]; SC): 1188 ng·h/mL
- CL/F ([3]; SC): 27.67 mL/min/kg
- Cmax ([3]; SC): 143 ng/mL
- Tmax ([3]; SC): 2.00 h
- t1/2 ([3]; SC): 26.17 h

Compound: SEQ ID NO: 32: PEGylated R11Cit, R18Cit analog (product of SEQ ID NO:31) (WVTHXLAGLLSXSGGVVRKNFVPTDVGPFAF; PEGylated; citrulline at 11 and 18; CGRP peptide; MOD_RES (1)..(1): …ON; MISC_FEATURE (5)..(5): xaa=citrulline; MISC_FEATURE (12)..(12): xaa=citrulline; MISC_FEATURE (19)..(19): PEGylated; MOD_RES (31)..(31): AMIDATION)
- AUC0-inf ([3]; IV): 40431 ng·h/mL
- AUC0-t ([3]; IV): 40250 ng·h/mL
- CL ([3]; IV): 0.817 mL/min/kg
- MRT ([3]; IV): 4.12 h
- Vss ([3]; IV): 0.204 L/kg
- t1/2 ([3]; IV): 42.78 h
- AUC0-inf ([3]; SC): 19046 ng·h/mL
- AUC0-t ([3]; SC): 18933 ng·h/mL
- CL/F ([3]; SC): 1.75 mL/min/kg
- Cmax ([3]; SC): 1879 ng/mL
- F % ([3]; SC): 47%
- Tmax ([3]; SC): 4.00 h
- t1/2 ([3]; SC): 29.98 h

Compound: SEQ ID NO: 40: double glutamine analog PEGylated through amine linkage (Ac-WVTHQLAGLLSQSGGVVRK(PEG)NFVPTDVGPFAF-NH2; reading uncertain)
- AUC0-inf ([3]; IV): 10666 ng·h/mL
- AUC0-t ([3]; IV): 10651 ng·h/mL
- CL ([3]; IV): 3.12 mL/min/kg
- MRT ([3]; IV): 2.63 h
- Vss ([3]; IV): 0.496 L/kg
- t1/2 ([3]; IV): 32.57 h
- AUC0-inf ([3]; SC): 1223 ng·h/mL
- AUC0-t ([3]; SC): 1212 ng·h/mL
- CL/F ([3]; SC): 27.23 mL/min/kg
- Cmax ([3]; SC): 121 ng/mL
- F % ([3]; SC): 11%
- Tmax ([3]; SC): 4.00 h
- t1/2 ([3]; SC): 27.15 h
